From patent publication US20170015742A1 (published 2017)

Columns and labels:
VEGF-A = VEGF-A (UniProt P15692-4 27-191, limits assumed); experiment: SPR (Biacore), DVD-Ig captured by anti-human Fc, antigen in flow
Experimental: (§1) For example, approximately 9000 RU of goat anti-human Fc specific polyclonal antibody (Thermo Fisher Scientific Inc., Rockford, Ill.) diluted in 10 mM sodium acetate (pH 4.5) is directly immobilized across a CM5 research grade biosensor chip using a standard amine coupling kit according to manufacturer's instructions and procedures at 25 μg/ml. Unreacted moieties on the biosensor surface were blocked with ethanolamine. For kinetic analysis, rate equations derived from the 1:1 Langmuir binding model were fitted simultaneously to multiple antigen injections (using global fit analysis) with the use of Scrubber 2 (BioLogic Software), Biacore Biaevaluation 4.0.1 software or Biacore T100 Evaluation software. Purified antibodies or DVD-Ig molecules were diluted in running buffer for capture across goat anti-human Fc reaction surfaces. Antibodies or DVD-Ig molecules to be captured as a ligand (1 μg/ml) were injected over reaction matrices at a flow rate of 10 μl/minute. During the assay, all measurements were referenced against the capture surface alone (i.e., with no captured antibody or DVD-Ig molecule). […] The equilibrium dissociation constant KD (M) of the reaction between antibodies and the target antigen was then calculated from the kinetic rate constants by the following formula: KD=Koff/Kₒₙ. Binding was recorded as a function of time and kinetic rate constants were calculated.

PDGF-BB = PDGF-BB (UniProt P01127 82-190); experiment: as above
PDGF-BB, sequence (P01127 82-190): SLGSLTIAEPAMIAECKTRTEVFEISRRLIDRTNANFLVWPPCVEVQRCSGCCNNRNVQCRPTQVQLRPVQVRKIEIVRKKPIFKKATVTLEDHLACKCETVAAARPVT
Experimental: as §1

Human VEGF-A 165 = target: T1, Human VEGF-A 165 (human, UniProt P15692 207-395); experiment: SPR (Biacore), method of Example 1.1
T1 construct: also called hVEGF165
T1 sequence (P15692 other isoform, or with tags, fused parts or gaps limits assumed): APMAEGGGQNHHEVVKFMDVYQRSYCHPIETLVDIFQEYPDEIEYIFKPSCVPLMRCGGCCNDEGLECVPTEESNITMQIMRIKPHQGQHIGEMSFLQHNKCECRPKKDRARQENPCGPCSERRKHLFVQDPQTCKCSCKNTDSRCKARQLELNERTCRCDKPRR
Experimental: as §1, with “Unreacted” for “For example, approximately 9000 RU of goat anti-human Fc specific polyclonal antibody (Thermo Fisher Scientific Inc., Rockford, Ill.) diluted in 10 mM sodium acetate (pH 4.5) is directly immobilized across a CM5 research grade biosensor chip using a standard amine coupling kit according to manufacturer's instructions and procedures at 25 μg/ml. Unreacted”, “calculated. In this assay, on-rates as fast as 10⁶M⁻¹s⁻¹ and off-rates as slow as 10⁻⁶ s⁻¹ could be measured.” for “calculated.”

Human PDGF-BB = target: T2, Human PDGF-BB (human, UniProt P01127 82-190); experiment: SPR (Biacore), method of Example 1.1
T2 construct: also called hPDGF-BB
T2 sequence (P01127 82-190 limits assumed): as the sequence (P01127 82-190) above
Experimental: as §1, with “Unreacted” for “For example, approximately 9000 RU of goat anti-human Fc specific polyclonal antibody (Thermo Fisher Scientific Inc., Rockford, Ill.) diluted in 10 mM sodium acetate (pH 4.5) is directly immobilized across a CM5 research grade biosensor chip using a standard amine coupling kit according to manufacturer's instructions and procedures at 25 μg/ml. Unreacted”, “calculated. In this assay, on-rates as fast as 10⁶M⁻¹s⁻¹ and off-rates as slow as 10⁻⁶ s⁻¹ could be measured.” for “calculated.”

VEGF-A, sequence (P15692 other isoform, or with tags, fused parts or gaps limits assumed): as the sequence (P15692 other isoform, or with tags, fused parts or gaps limits assumed) above

Binder	Kd (VEGF-A) [nM]	kon (VEGF-A) [M⁻¹ s⁻¹]	Kd (PDGF-BB) [nM]	kon (PDGF-BB) [M⁻¹ s⁻¹]	Kd (Human VEGF-A 165) [nM]	Kd (Human PDGF-BB) [nM]	kon (Human PDGF-BB) [M⁻¹ s⁻¹]	binding result (Human VEGF-A 165)
DVD3906 (PR-1565035) (bispecific antibody, human IgG1, kappa, L234A L235A, DVD-Ig; linkers HG-short/LK-long, inner hBDB-4G8.15 (VEGF); human IgG1 L234A, L235A / kappa) heavy: not shown light: DFQLTQSPSSLSASVGDRVTITCERSSGDIGDTYVSWYQQKPGKAPKNVIYGNDQRPSGVPSRFSGSGSGNSATLTISSLQPEDFATYFCQSYDSDIDIVFGQGTKVEIKGTVAAPSVFIFPPDTQLTQSPSSLSASVGDRVTISCRASESVSTHMHWYQQKPGKAPKLLIYGASNLESGVPSRFSGSGSGTDFTLTISSLQPEDFATYFCQQSWNDPFTFGQGTKVEIKRTVAAPSVFIFPPSDEQLKSGTASVVCLLNNFYPREAKVQWKVDNALQSGNSQESVTEQDSKDSTYSLSSTLTLSKADYEKHKVYACEVTHQGLSSPVTKSFNRGEC	0.1	920000	0.72	1e+07	–	–	–	–
CODV009 (bispecific antibody, human IgG1, kappa, L234A L235A, Anti-human VEGF-A/anti-human PDGF-BB cross-over DVD-Ig (CO-DVD-Ig); also called PR-1571821) heavy: EVQLVQSGSELKKPGASVKVSCKASGYTFTNYGMYWVRQAPGQGLEWMGWINTETGKPTYADDFKGRFVFSLDTSVSTAYLQISSLKAEDTAVYYCARTNYYYRSYIFYFDYWGQGTMVTVSSGEVTLRESGPALVKPTQTLTLTCTFSGFSLSTYGMGVGWIRQPPGKALEWLANIWWDDDKYYNPSLKNRLTISKDTSKNQVVLTMTNMDPVDTATYYCARIESIGTTYSFDYWGQGTMVTVSSGGASTKGPSVFPLAPSSKSTSGGTAALGCLVKDYFPEPVTVSWNSGALTSGVHTFPAVLQSSGLYSLSSVVTVPSSSLGTQTYICNVNHKPSNTKVDKKVEPKSCDKTHTCPPCPAPEAAGGPSVFLFPPKPKDTLMISRTPEVTCVVVDVSHEDPEVKFNWYVDGVEVHNAKTKPREEQYNSTYRVVSVLTVLHQDWLNGKEYKCKVSNKALPAPIEKTISKAKGQPREPQVYTLPPSREEMTKNQVSLTCLVKGFYPSDIAVEWESNGQPENNYKTTPPVLDSDGSFFLYSKLTVDKSRWQQGNVFSCSVMHEALHNAYTQKSLSLSPGK light: EFVLTQSPGTLSLSPGERATLSCERSSGDIGDSYVSWYQQKPGQAPRLVIYADDQRPSGIPDRFSGSGSGTDFTLTISRLEPEDFAVYYCQSYDINIDIVFGGGTKVEIKGGGSGGGDTVLTQSPATLSLSPGERATLSCRASESVSTHMHWYQQKPGQAPRLLIYGASNLESGVPARFSGSGSGTDFTLTISSLEPEDFAVYFCQQSWNDPFTFGQGTKLEIKGGGSGRTVAAPSVFIFPPSDEQLKSGTASVVCLLNNFYPREAKVQWKVDNALQSGNSQESVTEQDSKDSTYSLSSTLTLSKADYEKHKVYACEVTHQGLSSPVTKSFNRGEC	–	–	–	–	26	0.0056	3.5e+07	–
CODV003 (bispecific antibody, human IgG1, kappa, L234A L235A, Anti-human VEGF-A/anti-human PDGF-BB cross-over DVD-Ig (CO-DVD-Ig); also called PR-1565044) heavy: not shown light: DFQLTQSPSSLSASVGDRVTITCERSSGDIGDSYVSWYQQKPGKAPKNVIYADDQRPSGVPSRFSGSGSGNSASLTISSLQPEDFATYFCQSYDINIDIVFGQGTKVEIKGGGSGGGDIQMTQSPSSLSASVGDRVTITCSASQDISNYLNWYQQKPGKAPKVLIYFTSSLHSGVPSRFSGSGSGTDFTLTISSLQPEDFATYYCQQYSTVPWTFGQGTKVEIKGGGSGRTVAAPSVFIFPPSDEQLKSGTASVVCLLNNFYPREAKVQWKVDNALQSGNSQESVTEQDSKDSTYSLSSTLTLSKADYEKHKVYACEVTHQGLSSPVTKSFNRGEC	–	–	–	–	–	0.011	2.3e+07	no binding
CODV004 (bispecific antibody, human IgG1, kappa, L234A L235A, Anti-human VEGF-A/anti-human PDGF-BB cross-over DVD-Ig (CO-DVD-Ig); also called PR-1565051) heavy: not shown light: DIQMTQSPSSLSASVGDRVTITCSASQDISNYLNWYQQKPGKAPKVLIYFTSSLHSGVPSRFSGSGSGTDFTLTISSLQPEDFATYYCQQYSTVPWTFGQGTKVEIKGGGSGGGDFQLTQSPSSLSASVGDRVTITCERSSGDIGDSYVSWYQQKPGKAPKNVIYADDQRPSGVPSRFSGSGSGNSASLTISSLQPEDFATYFCQSYDINIDIVFGQGTKVEIKGGGSGRTVAAPSVFIFPPSDEQLKSGTASVVCLLNNFYPREAKVQWKVDNALQSGNSQESVTEQDSKDSTYSLSSTLTLSKADYEKHKVYACEVTHQGLSSPVTKSFNRGEC	–	–	–	–	–	0.087	1e+07	no binding
CODV006 (bispecific antibody, human IgG1, kappa, L234A L235A, Anti-human VEGF-A/anti-human PDGF-BB cross-over DVD-Ig (CO-DVD-Ig); also called PR-1565084) heavy: not shown light: DTQLTQSPSSLSASVGDRVTISCRASESVSTHMHWYQQKPGKAPKLLIYGASNLESGVPSRFSGSGSGTDFTLTISSLQPEDFATYFCQQSWNDPFTFGQGTKVEIKGGGSGGGDFQLTQSPSSLSASVGDRVTITCERSSGDIGDTYVSWYQQKPGKAPKNVIYGNDQRPSGVPSRFSGSGSGNSATLTISSLQPEDFATYFCQSYDSDIDIVFGQGTKVEIKGGGSGRTVAAPSVFIFPPSDEQLKSGTASVVCLLNNFYPREAKVQWKVDNALQSGNSQESVTEQDSKDSTYSLSSTLTLSKADYEKHKVYACEVTHQGLSSPVTKSFNRGEC	–	–	–	–	–	0.0097	2.2e+07	no binding
CODV008 (bispecific antibody, human IgG1, kappa, L234A L235A, Anti-human VEGF-A/anti-human PDGF-BB cross-over DVD-Ig (CO-DVD-Ig); also called PR-1565086) heavy: not shown light: DTQLTQSPSSLSASVGDRVTISCRASESVSTHMHWYQQKPGKAPKLLIYGASNLESGVPSRFSGSGSGTDFTLTISSLQPEDFATYFCQQSWNDPFTFGQGTKVEIKGGGSGGGDFQLTQSPSSLSASVGDRVTITCERSSGDIGDSYVSWYQQKPGKAPKNVIYADDQRPSGVPSRFSGSGSGNSASLTISSLQPEDFATYFCQSYDINIDIVFGQGTKVEIKGGGSGRTVAAPSVFIFPPSDEQLKSGTASVVCLLNNFYPREAKVQWKVDNALQSGNSQESVTEQDSKDSTYSLSSTLTLSKADYEKHKVYACEVTHQGLSSPVTKSFNRGEC	–	–	–	–	–	0.0074	1.7e+07	no binding
CODV005 (bispecific antibody, human IgG1, kappa, L234A L235A, Anti-human VEGF-A/anti-human PDGF-BB cross-over DVD-Ig (CO-DVD-Ig); also called PR-1565083) heavy: not shown light: DFQLTQSPSSLSASVGDRVTITCERSSGDIGDTYVSWYQQKPGKAPKNVIYGNDQRPSGVPSRFSGSGSGNSATLTISSLQPEDFATYFCQSYDSDIDIVFGQGTKVEIKGGGSGGGDTQLTQSPSSLSASVGDRVTISCRASESVSTHMHWYQQKPGKAPKLLIYGASNLESGVPSRFSGSGSGTDFTLTISSLQPEDFATYFCQQSWNDPFTFGQGTKVEIKGGGSGRTVAAPSVFIFPPSDEQLKSGTASVVCLLNNFYPREAKVQWKVDNALQSGNSQESVTEQDSKDSTYSLSSTLTLSKADYEKHKVYACEVTHQGLSSPVTKSFNRGEC	–	–	–	–	35	0.011	1.2e+07	–
CODV007 (bispecific antibody, human IgG1, kappa, L234A L235A, Anti-human VEGF-A/anti-human PDGF-BB cross-over DVD-Ig (CO-DVD-Ig); also called PR-1565085) heavy: not shown light: DFQLTQSPSSLSASVGDRVTITCERSSGDIGDSYVSWYQQKPGKAPKNVIYADDQRPSGVPSRFSGSGSGNSASLTISSLQPEDFATYFCQSYDINIDIVFGQGTKVEIKGGGSGGGDTQLTQSPSSLSASVGDRVTISCRASESVSTHMHWYQQKPGKAPKLLIYGASNLESGVPSRFSGSGSGTDFTLTISSLQPEDFATYFCQQSWNDPFTFGQGTKVEIKGGGSGRTVAAPSVFIFPPSDEQLKSGTASVVCLLNNFYPREAKVQWKVDNALQSGNSQESVTEQDSKDSTYSLSSTLTLSKADYEKHKVYACEVTHQGLSSPVTKSFNRGEC	–	–	–	–	22	0.0073	2.9e+07	–
4G8.3-GS(11)-9E8.4 (g) (PR-1572103) (bispecific antibody, human IgG1, kappa, L234A L235A, DVD-Ig; outer hBDB-4G8.3 (VEGF), linkers GS-H10/GS-L11, inner hBDI-9E8.4 (PDGF); human IgG1 L234A, L235A, H435A / kappa) heavy: EVQLVQSGSELKKPGASVKVSCKASGYTFTNYGMYWVRQAPGQGLEWMGWINTETGKPTYADDFKGRFVFSLDTSVSTAYLQISSLKAEDTAVYYCARTNYYYRSYIFYFDYWGQGTMVTVSSGGGGSGGGGSEVTLRESGPALVKPTQTLTLTCTFSGFSLSTYGMGVGWIRQPPGKALEWLANIWWDDDKYYNPSLKNRLTISKDTSKNQVVLTMTNMDPVDTATYYCARIESIGTTYSFDYWGQGTMVTVSSASTKGPSVFPLAPSSKSTSGGTAALGCLVKDYFPEPVTVSWNSGALTSGVHTFPAVLQSSGLYSLSSVVTVPSSSLGTQTYICNVNHKPSNTKVDKKVEPKSCDKTHTCPPCPAPEAAGGPSVFLFPPKPKDTLMISRTPEVTCVVVDVSHEDPEVKFNWYVDGVEVHNAKTKPREEQYNSTYRVVSVLTVLHQDWLNGKEYKCKVSNKALPAPIEKTISKAKGQPREPQVYTLPPSREEMTKNQVSLTCLVKGFYPSDIAVEWESNGQPENNYKTTPPVLDSDGSFFLYSKLTVDKSRWQQGNVFSCSVMHEALHNAYTQKSLSLSPGK light: DTVLTQSPATLSLSPGERATLSCRASESVSTHMHWYQQKPGQAPRLLIYGASNLESGVPARFSGSGSGTDFTLTISSLEPEDFAVYFCQQSWNDPFTFGQGTKLEIKRGGSGGGGSGGEFVLTQSPGTLSLSPGERATLSCERSSGDIGDSYVSWYQQKPGQAPRLVIYADDQRPSGIPDRFSGSGSGTDFTLTISRLEPEDFAVYYCQSYDINIDIVFGGGTKVEIKRTVAAPSVFIFPPSDEQLKSGTASVVCLLNNFYPREAKVQWKVDNALQSGNSQESVTEQDSKDSTYSLSSTLTLSKADYEKHKVYACEVTHQGLSSPVTKSFNRGEC	0.012	6.3e+06	0.013	1.4e+07	–	–	–	–
